# Test results published in US20240118200A1.
# B1: wheat germ agglutinin (WGA) with Alexa Fluor 488 tag (protein, UniProt P10968 27-197, looked up)
# chain: QRCGEQGSNMECPNNLCCSQYGYCGMGGDYCGKGCQNGACWTSKRCGSQAGGATCTNNQCCSQYGYCGFGAEYCGAGCQGGPCRADIKCGSQAGGKLCPNNLCCSQWGFCGLGSEFCGGGCQSGACSTDKPCGKDAGGRVCTNNYCCSKWGSCGIGPGYCGAGCQSGGCDG
# modifications: Alexa Fluor 488 label, site not stated
# What was measured:
# [1] = biological target: glycoproteins on HeLa cells; test: SPR imaging on fixed HeLa cells on gold, 50 µg/ml WGA, average of 10 cells, first order kinetic fit
# [2] = biological target: glycoproteins on HeLa cells; test: CAR imaging on fixed HeLa cells on glass, 50 µg/ml WGA, average over cells, first order kinetic fit
binder,measurement,setting,value
B1,Kd,[1],53 nM
same,koff,[1],0.00013 s⁻¹
same,kon,[1],2500 M⁻¹ s⁻¹
same,Kd,[2],42 nM
same,koff,[2],0.00026 s⁻¹
same,kon,[2],6000 M⁻¹ s⁻¹
